Data published in article PMC7960628.

What was measured:
Test in all cases: SEC; gel filtration chromatography of the Ni-NTA purified motif-foldon fusion proteins; trimer
[1] = target: 6xHis-(GPP)5GFQGEK(GPP)5-foldon
[2] = target: 6xHis-(GPP)5GSQGEK(GPP)5-foldon (mouse | not stated)
[3] = target: 6xHis-(GPP)5GPKGER(GPP)5-foldon

6xHis-(GPP)5GFQGEK(GPP)5-foldon (designed binder)
stoichiometry N [1]: 3

6xHis-(GPP)5GSQGEK(GPP)5-foldon (designed binder)
stoichiometry N [2]: 3

6xHis-(GPP)5GPKGER(GPP)5-foldon (designed binder)
stoichiometry N [3]: 3
